Experimental data as given in US20030224390A1, “Method of identifying conformation-sensitive binding peptides and uses thereof” (Karo Bio AB, priority 2000, published 2003).

What was measured:
[1] = target: T1, ER α (Homo sapiens, UniProt P03372); experiment: Phage ELISA fingerprint: peptide binding to immobilized ER α with modulator present (Table 14A); details: ICI 182,780 (1 μM)
T1 sequence (P03372 1-595): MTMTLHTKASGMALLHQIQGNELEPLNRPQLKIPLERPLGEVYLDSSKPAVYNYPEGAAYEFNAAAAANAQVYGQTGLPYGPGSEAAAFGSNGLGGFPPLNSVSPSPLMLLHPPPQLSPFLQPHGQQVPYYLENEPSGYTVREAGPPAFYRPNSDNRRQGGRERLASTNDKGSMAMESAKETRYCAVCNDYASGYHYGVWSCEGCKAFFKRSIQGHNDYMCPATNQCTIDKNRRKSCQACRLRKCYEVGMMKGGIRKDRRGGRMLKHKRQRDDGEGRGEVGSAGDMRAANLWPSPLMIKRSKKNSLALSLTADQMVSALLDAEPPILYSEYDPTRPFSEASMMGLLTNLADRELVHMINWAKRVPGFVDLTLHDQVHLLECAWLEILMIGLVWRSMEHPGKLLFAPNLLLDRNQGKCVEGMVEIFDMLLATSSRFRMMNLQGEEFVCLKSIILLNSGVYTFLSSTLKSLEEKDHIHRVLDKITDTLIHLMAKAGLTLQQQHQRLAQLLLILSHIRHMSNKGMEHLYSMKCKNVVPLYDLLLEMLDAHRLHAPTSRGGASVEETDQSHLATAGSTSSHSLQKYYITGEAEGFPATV

[2] = target: ERβ (Homo sapiens, UniProt Q92731); experiment: Phage ELISA fingerprint: peptide binding to immobilized ER β with modulator present (Table 14B); details: nafoxidine (10 μM)
Sequence of ERβ (Q92731 whole entry, species assumed): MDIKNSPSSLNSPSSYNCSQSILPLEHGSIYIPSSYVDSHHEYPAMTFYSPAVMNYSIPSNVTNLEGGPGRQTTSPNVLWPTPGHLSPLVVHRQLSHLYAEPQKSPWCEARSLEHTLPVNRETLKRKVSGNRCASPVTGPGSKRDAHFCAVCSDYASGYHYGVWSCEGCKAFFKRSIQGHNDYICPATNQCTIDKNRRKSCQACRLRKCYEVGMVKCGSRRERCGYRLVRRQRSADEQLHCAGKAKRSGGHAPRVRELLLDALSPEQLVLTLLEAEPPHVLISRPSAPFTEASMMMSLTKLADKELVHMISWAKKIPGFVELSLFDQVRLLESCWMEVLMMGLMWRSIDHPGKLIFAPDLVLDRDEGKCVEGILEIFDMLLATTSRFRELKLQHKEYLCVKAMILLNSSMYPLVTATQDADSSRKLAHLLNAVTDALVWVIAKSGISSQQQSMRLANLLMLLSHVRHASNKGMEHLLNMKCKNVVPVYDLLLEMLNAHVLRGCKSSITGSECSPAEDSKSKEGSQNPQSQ

Class Specific Fingerprint on ERα: peptide binding, ICI 182,780 present [1]: 0
Class Specific Fingerprint on ERβ: peptide binding, Nafoxidine present [2]: 5
Sequence: SRLPPSVFSMCGSEVCLSR [9Tβ]
